Patent US6140490, “High affinity nucleic acid ligands of complement system proteins” (NeXstar Pharmaceuticals, Inc.)

Experiments:
Complement C5 = Complement C5 (Homo sapiens, UniProt P01031;P01031 P01031:19-673,P01031:678-1676); assay: minimal structure from boundary analysis; called 38mer in text; settings: tags: Quidel
Protocol: A secondary structure for an inhibitory C5 Nucleic Acid Ligand as determined by current art (Green et al. (1995) Chem & Biol. 2:683) is shown in FIG. 3 (SEQ ID NO:75). The smallest structure which would bind C5 is determined by: a) radiolabeling the C5 Nucleic Acid Ligand at both the 3' and the 5' end; b) treating the labeled Nucleic Acid Ligand by partial base-hydrolyzed to split a portion of the bonds between nucleotides; c) incubating the partially hydrolyzed Nucleic Acid Ligand with C5 protein and then eluting the bound Nucleic Acid Ligand; and d) analyzing the eluted Nucleic Acid Ligand on gels. In this procedure, the Nucleic Acid Ligand initially binds to C5 as bases are removed from the Nucleic Acid Ligand. When an essential base is removed, the Nucleic Acid Ligand is no longer able to bind. This first essential base determines the boundary of the minimal Nucleic Acid Ligand structure. For a human C5 Nucleic Acid Ligand the smallest binding structure is believed to comprise the sequence with proposed base-pairing pattern shown in FIG. 3.

Complement C1q = Complement C1q (Homo sapiens, UniProt P02745;P02746;P02747 P02745:23-245,P02746:28-253,P02747:29-245); assay: filter; MgPBS, 37 C; still binds C1q on immune complexes; competed by SAP, beta-amyloid, CRP and A-chain 14-26 peptide; settings: tags: Quidel; chain copies: 6; label: 32P
Protocol: Individual cloned DNA was T7 transcribed with α-[^32P]-ATP and the full length [^32P]-2'-NH_2-RNA or 2'-F-RNA was gel-purified (as above). RNA was suspended at approximately 5,000 cpm per 30 µl sample (<10 pM), and aliquots were incubated with various concentrations of C1q, C3 or C5 in MgPBS for 10 minutes at 37° C. Samples were then filtered through nitrocellulose, the filters washed with buffer and dried under an infrared lamp, and counted with addition of scintillation fluid (Ecoscint A, National Diagnostics, Atlanta, Ga.). A background sample of RNA alone was run in parallel. […] Filters were washed and counted.
RNA ligand binding to C1q was also measured in the presence of immune-complexes, which would block the binding of ligands to C1q head-groups. Immune complexes (IC) were formed by mixing 620 µg BSA at equivalence with 1 ml of rabbit anti-BSA (Sigma, St. Louis, Mo.) plus PEG 8000 added to 1% final concentration, and then the samples were incubated overnight at 4° C. The IC were pelleted by microfugation at 12,000 rpm for 10 minutes, washed five times with PBS, and suspended in 1 ml of MgPBS. […] Samples were incubated for 30 minutes at room temperature, microfuged, and the pellets and supernatants counted.

Sequence of Complement C1q (P02745 23-245, chain 1 of 3): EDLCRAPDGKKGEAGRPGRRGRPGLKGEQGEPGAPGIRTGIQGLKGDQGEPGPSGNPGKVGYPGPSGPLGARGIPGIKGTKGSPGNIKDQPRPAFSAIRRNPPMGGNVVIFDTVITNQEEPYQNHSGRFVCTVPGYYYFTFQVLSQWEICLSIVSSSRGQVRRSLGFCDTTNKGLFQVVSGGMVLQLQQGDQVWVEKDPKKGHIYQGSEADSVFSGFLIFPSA
Sequence of Complement C1q (P02746 28-253, chain 2 of 3): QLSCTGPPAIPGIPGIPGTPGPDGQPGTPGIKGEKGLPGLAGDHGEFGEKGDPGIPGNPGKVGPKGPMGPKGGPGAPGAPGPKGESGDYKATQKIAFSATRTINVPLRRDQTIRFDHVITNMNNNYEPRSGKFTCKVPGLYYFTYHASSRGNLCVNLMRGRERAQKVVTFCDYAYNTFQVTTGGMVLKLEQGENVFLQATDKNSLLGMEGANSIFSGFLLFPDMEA
Sequence of Complement C1q (P02747 29-245, chain 3 of 3): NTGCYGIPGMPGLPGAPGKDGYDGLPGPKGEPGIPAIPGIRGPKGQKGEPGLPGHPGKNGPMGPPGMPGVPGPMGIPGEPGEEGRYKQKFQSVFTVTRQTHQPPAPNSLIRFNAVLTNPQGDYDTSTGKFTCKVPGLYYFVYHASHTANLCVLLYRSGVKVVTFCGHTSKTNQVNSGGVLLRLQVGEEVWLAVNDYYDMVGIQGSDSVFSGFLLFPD
Sequence of Complement C5 (P01031 19-673, chain 1 of 2): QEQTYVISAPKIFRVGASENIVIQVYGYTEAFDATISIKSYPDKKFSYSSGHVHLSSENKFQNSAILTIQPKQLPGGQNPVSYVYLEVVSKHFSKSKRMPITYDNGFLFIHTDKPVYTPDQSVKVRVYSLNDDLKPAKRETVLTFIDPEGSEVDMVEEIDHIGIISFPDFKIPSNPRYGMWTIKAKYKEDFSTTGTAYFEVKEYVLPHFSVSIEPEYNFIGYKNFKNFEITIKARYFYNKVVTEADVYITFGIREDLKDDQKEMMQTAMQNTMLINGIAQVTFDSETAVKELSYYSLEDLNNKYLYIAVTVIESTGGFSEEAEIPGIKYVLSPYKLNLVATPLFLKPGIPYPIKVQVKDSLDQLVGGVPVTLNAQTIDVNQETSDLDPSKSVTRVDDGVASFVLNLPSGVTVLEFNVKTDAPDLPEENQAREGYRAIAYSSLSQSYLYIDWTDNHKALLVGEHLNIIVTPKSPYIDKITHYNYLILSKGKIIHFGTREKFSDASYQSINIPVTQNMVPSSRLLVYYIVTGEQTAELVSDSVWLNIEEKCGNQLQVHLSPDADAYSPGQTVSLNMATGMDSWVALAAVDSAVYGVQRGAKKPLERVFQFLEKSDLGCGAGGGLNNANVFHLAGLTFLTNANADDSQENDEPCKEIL
Sequence of Complement C5 (P01031 678-1676, chain 2 of 2): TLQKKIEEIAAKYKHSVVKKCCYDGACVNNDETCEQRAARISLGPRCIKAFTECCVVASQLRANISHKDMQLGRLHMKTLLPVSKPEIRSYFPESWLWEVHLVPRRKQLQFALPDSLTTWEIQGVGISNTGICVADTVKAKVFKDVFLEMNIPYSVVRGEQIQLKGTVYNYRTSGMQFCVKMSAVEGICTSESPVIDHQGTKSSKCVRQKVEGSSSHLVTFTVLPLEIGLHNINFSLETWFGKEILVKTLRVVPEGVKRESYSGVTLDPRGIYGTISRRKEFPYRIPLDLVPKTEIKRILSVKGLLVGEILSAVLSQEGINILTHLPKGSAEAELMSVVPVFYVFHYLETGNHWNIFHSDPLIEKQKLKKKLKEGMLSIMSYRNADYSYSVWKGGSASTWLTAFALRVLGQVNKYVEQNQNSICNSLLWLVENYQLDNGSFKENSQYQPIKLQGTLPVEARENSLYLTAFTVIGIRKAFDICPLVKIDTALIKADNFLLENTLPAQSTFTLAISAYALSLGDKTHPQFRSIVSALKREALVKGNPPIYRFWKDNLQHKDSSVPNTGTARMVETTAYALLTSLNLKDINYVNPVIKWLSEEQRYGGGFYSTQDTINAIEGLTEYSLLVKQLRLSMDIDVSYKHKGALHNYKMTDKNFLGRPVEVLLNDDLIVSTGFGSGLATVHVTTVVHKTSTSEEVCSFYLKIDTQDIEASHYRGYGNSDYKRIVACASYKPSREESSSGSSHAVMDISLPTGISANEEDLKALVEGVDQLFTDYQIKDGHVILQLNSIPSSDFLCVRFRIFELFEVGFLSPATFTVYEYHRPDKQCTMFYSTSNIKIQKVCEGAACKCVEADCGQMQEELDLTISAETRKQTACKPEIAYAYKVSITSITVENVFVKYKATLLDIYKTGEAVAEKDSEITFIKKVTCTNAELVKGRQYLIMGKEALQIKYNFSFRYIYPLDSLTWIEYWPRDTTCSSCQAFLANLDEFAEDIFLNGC

GACGAUGCGGUCUCAUGCGUCGAGUGUGAGUUUACCUUCGUC (ssRNA, 2'-F C and U) [truncated C5 ligand (FIG. 3)]: binds (Complement C5).

B1: clone 50 (ssRNA)
RNA: GGGAGGACGAUGCGGGUGGAGUGGAGGUAUAACGGCCGGUAGCGCAUCCCACUCGGGUCUGCGGUAGACGACUCGCCCGA
modifications: 2'-NH2 C and U
In the case of B1, the Kd (Complement C1q) is reported as 0.979 nM.
